Reference: US20160200782A1 (MOERAE MATRIX, published 2016)

Key:
Test in all cases: cell-based or functional assay
[1] = biological target: EGFR(L861Q)(h) (human, UniProt P00533 696-1210, limits assumed)
[2] = biological target: Rsk1(h) (human, UniProt Q15418 1-735, limits assumed)
[3] = biological target: T1, Ret(h) (human, UniProt P07949 658-1114, limits assumed)
T1 sequence (looked up): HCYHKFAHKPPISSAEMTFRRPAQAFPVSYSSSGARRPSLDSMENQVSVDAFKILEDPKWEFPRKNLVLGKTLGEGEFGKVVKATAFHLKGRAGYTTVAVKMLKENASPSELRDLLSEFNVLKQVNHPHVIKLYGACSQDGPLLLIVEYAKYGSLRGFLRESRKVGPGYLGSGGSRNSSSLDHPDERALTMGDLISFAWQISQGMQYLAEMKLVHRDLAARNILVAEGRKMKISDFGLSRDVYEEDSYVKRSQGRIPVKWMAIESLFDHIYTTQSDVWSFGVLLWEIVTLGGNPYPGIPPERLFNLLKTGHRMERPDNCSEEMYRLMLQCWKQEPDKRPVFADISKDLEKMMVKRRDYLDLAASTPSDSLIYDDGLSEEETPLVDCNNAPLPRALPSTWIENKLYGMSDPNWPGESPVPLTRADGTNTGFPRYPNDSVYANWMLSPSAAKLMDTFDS

[4] = biological target: PKBγ(h) (human, UniProt Q9Y243 1-479, limits assumed)
[5] = biological target: T2, EphB3(h) (human, UniProt P54753 581-998, limits assumed)
T2 sequence (looked up): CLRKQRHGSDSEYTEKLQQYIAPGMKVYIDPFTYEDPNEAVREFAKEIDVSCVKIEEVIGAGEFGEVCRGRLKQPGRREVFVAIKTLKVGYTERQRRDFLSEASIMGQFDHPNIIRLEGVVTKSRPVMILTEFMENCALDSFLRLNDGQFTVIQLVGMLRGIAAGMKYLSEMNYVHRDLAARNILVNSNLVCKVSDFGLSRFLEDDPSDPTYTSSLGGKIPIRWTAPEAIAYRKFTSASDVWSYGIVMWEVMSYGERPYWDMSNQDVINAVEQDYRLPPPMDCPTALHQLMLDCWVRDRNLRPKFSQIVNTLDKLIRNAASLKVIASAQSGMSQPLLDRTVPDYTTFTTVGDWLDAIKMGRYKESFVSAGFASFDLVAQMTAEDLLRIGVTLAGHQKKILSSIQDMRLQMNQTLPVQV

[6] = biological target: T3, IKKα(h) (human, UniProt O15111 1-745, limits assumed)
T3 sequence (looked up): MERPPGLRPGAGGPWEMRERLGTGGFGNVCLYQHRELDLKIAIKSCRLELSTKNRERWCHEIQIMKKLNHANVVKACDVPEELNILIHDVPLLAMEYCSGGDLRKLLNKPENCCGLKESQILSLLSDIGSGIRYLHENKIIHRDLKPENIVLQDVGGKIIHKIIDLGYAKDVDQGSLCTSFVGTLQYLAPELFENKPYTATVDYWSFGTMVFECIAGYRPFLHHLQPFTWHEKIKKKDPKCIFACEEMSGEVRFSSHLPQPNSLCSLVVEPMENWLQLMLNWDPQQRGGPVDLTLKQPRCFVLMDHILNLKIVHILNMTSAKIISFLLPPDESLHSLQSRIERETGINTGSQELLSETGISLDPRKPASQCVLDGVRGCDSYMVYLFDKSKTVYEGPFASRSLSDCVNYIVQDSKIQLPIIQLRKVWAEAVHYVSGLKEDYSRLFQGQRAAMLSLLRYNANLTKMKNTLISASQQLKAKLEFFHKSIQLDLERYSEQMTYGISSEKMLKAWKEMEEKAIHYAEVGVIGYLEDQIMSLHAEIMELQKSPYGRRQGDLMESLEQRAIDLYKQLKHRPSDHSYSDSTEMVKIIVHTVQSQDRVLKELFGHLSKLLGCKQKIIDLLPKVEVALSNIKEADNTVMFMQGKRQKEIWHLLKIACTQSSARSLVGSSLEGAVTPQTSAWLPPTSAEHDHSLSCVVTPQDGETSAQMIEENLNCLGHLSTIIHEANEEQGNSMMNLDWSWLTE

[7] = biological target: T4, SAPK4(h) (human, UniProt O15264 1-365)
T4 sequence (looked up): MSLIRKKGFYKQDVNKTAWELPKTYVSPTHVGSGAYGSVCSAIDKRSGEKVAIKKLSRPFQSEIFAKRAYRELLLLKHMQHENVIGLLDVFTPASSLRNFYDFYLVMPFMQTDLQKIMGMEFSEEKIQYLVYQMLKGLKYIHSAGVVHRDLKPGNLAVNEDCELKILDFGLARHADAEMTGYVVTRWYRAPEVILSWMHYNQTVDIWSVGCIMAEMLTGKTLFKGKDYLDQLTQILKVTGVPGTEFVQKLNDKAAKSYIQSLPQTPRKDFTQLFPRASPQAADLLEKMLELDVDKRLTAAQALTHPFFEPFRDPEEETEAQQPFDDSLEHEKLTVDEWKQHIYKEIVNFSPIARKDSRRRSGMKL

[8] = biological target: T5, PrKX(h) (human, UniProt P51817 1-358)
T5 sequence (looked up): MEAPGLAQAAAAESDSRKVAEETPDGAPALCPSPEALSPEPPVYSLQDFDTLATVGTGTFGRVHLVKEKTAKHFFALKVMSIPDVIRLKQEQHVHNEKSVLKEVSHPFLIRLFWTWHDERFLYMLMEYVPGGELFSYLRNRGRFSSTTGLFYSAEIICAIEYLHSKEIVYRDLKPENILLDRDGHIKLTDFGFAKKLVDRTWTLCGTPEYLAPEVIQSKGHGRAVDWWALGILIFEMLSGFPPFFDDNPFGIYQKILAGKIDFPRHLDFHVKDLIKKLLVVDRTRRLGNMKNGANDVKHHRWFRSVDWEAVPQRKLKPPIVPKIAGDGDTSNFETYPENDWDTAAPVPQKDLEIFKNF

[9] = biological target: Met(D1246H)(h) (human, UniProt P08581-2 974-1408, limits assumed)
[10] = biological target: PKCβII(h) (human, UniProt P05771-2 1-673)
[11] = biological target: Fes(h) (human, UniProt P07332 1-822, limits assumed)
Further: test concentration or dose not given here.

B1: MMI-0300 (peptide)
peptide: FAKLAARLYRKALARQLGVAA
- % activity [1]: 25%
- % activity [2]: 46%
- % activity [3]: 140%
- % activity [4]: 20%
- % activity [5]: 62%
- % activity [6]: 93%
- % activity [7]: 96%
- % activity [8]: 61%
- % activity [9]: 125%
- % activity [10]: 82%
- % activity [11]: 20%

B2: MMI-0400 (peptide)
peptide: KAFAKLAARLYRKALARQLGVAA
- % activity [1]: 22%
- % activity [2]: 54%
- % activity [3]: 145%
- % activity [4]: 41%
- % activity [5]: 47%
- % activity [6]: 87%
- % activity [7]: 91%
- % activity [8]: 76%
- % activity [9]: 68%
- % activity [10]: 75%
- % activity [11]: 16%
